What all share (assay): SPR, KD relative to WT C2;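 note: biacore SPR at 37 °C, anti-C2 mAbs captured via immobilised goat anti-human IgG, C2 alanine or serine surface mutants as analytes, 1:1 model fitted, double-referenced sensograms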
One assay has as its target T1, human C2 E267A (human, UniProt P06681 21-752).
T1 sequence: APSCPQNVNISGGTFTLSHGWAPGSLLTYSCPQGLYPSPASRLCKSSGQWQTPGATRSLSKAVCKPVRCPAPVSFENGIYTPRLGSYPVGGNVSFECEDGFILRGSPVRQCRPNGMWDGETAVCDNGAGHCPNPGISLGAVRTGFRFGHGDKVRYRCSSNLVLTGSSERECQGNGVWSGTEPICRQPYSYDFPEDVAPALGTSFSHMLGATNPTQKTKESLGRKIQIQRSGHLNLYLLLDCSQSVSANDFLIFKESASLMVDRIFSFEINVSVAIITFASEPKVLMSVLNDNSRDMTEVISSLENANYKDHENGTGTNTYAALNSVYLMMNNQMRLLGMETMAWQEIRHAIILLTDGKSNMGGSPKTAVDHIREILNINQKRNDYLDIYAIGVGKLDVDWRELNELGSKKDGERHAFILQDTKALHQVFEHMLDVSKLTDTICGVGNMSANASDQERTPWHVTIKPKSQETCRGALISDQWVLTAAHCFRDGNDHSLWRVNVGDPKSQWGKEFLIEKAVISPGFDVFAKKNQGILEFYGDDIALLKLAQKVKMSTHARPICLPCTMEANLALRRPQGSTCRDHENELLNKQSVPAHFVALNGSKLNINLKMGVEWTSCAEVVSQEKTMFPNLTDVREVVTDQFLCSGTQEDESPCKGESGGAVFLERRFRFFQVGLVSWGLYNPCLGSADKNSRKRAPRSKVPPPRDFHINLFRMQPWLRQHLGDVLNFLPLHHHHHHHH

Another assay concerns the target T2, human C2 A436S (human, UniProt P06681 21-752).
T2 sequence: T1 sequence with A247E, A416S

The target of a further assay is T3, human C2 Q447A (human, UniProt P06681 21-752).
T3 sequence: T1 sequence with A247E, Q427A

The target in the next assay is T4, human C2 K715A (human, UniProt P06681 21-752).
T4 sequence: T1 sequence with A247E, K695A

Experimental findings from US20220332804A1 (CSL INNOVATION, published 2022) are described below.

Residue numbers refer to the chain shown, from its start.

B1: RF16-226 (antibody, human IgG4 S228P, lambda)
heavy: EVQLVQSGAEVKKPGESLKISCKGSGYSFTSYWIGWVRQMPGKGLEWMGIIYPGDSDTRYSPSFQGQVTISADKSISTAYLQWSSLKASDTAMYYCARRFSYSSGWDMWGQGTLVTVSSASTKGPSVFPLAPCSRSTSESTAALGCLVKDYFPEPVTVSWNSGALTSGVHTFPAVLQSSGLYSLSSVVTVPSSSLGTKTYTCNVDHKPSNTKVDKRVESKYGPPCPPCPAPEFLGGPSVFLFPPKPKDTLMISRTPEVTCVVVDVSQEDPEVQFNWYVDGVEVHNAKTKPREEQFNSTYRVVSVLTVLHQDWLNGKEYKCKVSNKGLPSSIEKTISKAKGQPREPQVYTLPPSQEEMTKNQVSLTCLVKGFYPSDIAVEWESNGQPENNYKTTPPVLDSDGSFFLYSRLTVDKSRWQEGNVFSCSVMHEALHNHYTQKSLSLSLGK
light: SYELTQPPSVSVSPGQTARITCSGDALTSKYVAWYQQKSGLAPLLVIYEDTRRPSGIPAKFSGSSSGSVATLTISGAHGDDEADYYCYSTDASGHQRVFGGGTKLTVLSQPKAAPSVTLFPPSSEELQANKATLVCLISDFYPGAVTVAWKADGSPVKAGVETTKPSKQSNNKYAASSYLSLTPEQWKSHRSYSCQVTHEGSTVEKTVAPTECS
notes: pH-dependent anti-C2 antibody from a phage display library; also called WT
On to B1, for which the Fold diff in the assay with human C2 E267A worked out at 1 fold; with human C2 A436S it was 1 fold; in the assay with human C2 Q447A, 1 fold; with human C2 K715A, 2 fold.
